Results as given in US20220204613A1 (D 10 THERAPEUTICS, published 2022).
Where a chain is given by its changes, count along the chain named. Numbers in names are those of the source. Values belong to the binder of their own block, whether it stands above or below them.

Experiments:
human CD47 protein [1] = target: T1, human CD47 protein (human, UniProt Q08722 19-139, limits assumed); assay: SPR Biacore, purified IgG Fc-captured, human CD47 analyte 0.3125-10 nM
T1 construct: also called human CD47 antigen
T1 sequence (Q08722 19-139 limits assumed): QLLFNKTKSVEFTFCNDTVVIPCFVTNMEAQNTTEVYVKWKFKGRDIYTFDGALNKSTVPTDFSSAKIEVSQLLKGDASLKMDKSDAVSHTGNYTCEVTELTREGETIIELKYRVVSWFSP
Text: Affinity measurement of purified humanized IgGs. The affinity of purified antibody binding to human CD47 was individually determined using a Surface Plasmon Resonance (SPR) biosensor, Biacore® T200/8K (GE Healthcare). Antibodies were captured on the sensor chip through Fc capture method. Human CD47 protein was used as the analyte. The data of dissociation (kd) and association (ka) rate constants were obtained using Biacore T200/8K evaluation software. The equilibrium dissociation constants (KD) were calculated from the ratio of kd over ka.

human CD47 protein [2] = target: T1, human CD47 protein; assay: SPR Biacore, supernatant antibody Fc-captured, human CD47 analyte 5 nM
Method: Production and affinity ranking of humanized antibodies. The designed plasmids of heavy chain and light chain were sent for 3 mL transfection following GenScript's SOP. For affinity ranking, Antibodies were captured on the sensor chip through Fc capture method. Human CD47 protein was used as the analyte. The surface was regenerated before the injection of another antibody. The process was repeated until all antibodies were analyzed. The off-rates of antibodies were obtained from fitting the experimental data locally to 1:1 interaction model using the Biacore® T200/8K evaluation software. The antibodies were ranked by their dissociation rate constants (off-rates, kd).

[3] = target: T2, extracellular domain of human CD47 (human, UniProt Q08722 19-139); assay: hybridoma screening ELISA on the immunogen
T2 construct: also called immunogen
T2 sequence (Q08722 19-139 limits assumed): as above
Method: Balb/c mice (4-6 mice per group) were immunized with the extracellular domain of human CD47 and immune adjuvant. Immune boosts were performed 3-5 times. Serum collection and titer evaluation by ELISA against target immunogen were performed. Spleens were extracted surgically from the highest titer mouse or mice. Mouse spleen cells were fused with rat myeloma cells facilitated by PEG. Fused cells were seeded into 96-well plates in the presence of HAT Fusion medium. Three consecutive rounds of clone testing were performed by ELISA using the immunogen for positive screening to identify and validate the positive hybridoma clones. Hybridoma cell lines producing the most suitable antibodies were subcloned and expanded for monoclonal antibody production and cell storage.

B1: VH1-PTM+VL1 (antibody, human IgG4 S228P, kappa, V domains shown)
VH: QVQLVQSGAEVKKPGASVKVSCKASGYTFTSSVIHWVRQAPGQGLEWMGYINPYSEGTKFNEKSKIRVTMTRDTSISTAYMELSRLRSDDTAVYYCARGLIGTRYDSWFAYWGQGTLVTVSS
VL: DIQMTQSPSSLSASVGDRVTITCRTSQDINNYLNWYQQKPGKAPKLLIYYTSRLHSGVPSRFSGSGSGTDFTFTISSLQPEDIATYYCQQGNTLPYTFGGGTKVEIKR
notes: Purified humanized IgG with PTM sites removed, hIgG4 CH (S228P) and human kappa CL; leader residues 1-19 of each entry left out; also called U0959FD090-VH1-PTM + U0959FD090-VL1
- Kd (human CD47 protein [1]): 0.872 nM
- koff (human CD47 protein [1]): 0.0023 s⁻¹
- kon (human CD47 protein [1]): 2.64e+06 M⁻¹ s⁻¹

B2: VH1+VL1 (antibody, human IgG4 S228P, kappa, V domains shown)
VH: B1 VH with E56D, S64C
VL: B1 VL
notes: Humanized IgG, hIgG4 CH (S228P) and human kappa CL; Tested from supernatant; also called U0959FD090-VH1 + U0959FD090-VL1
- Kd (human CD47 protein [2]): 0.412 nM
- koff (human CD47 protein [2]): 0.0021 s⁻¹
- kon (human CD47 protein [2]): 5.1e+06 M⁻¹ s⁻¹

B4: VH1+VL3 (antibody, human IgG4 S228P, kappa, V domains shown)
VH: B1 VH with E56D, S64C
VL: B1 VL with P44V, F71Y, Y87F
notes: Humanized IgG, hIgG4 CH (S228P) and human kappa CL; leader residues 1-19 of each entry left out; Tested from supernatant; also called U0959FD090-VH1 + U0959FD090-VL3
- Kd (human CD47 protein [2]): 0.274 nM
- koff (human CD47 protein [2]): 0.00137 s⁻¹
- kon (human CD47 protein [2]): 5e+06 M⁻¹ s⁻¹

B7: VH1-PTM+VL2 (antibody, human IgG4 S228P, kappa, V domains shown)
VH: B1 VH
VL: B1 VL with P44V, Y87F
notes: Purified humanized IgG with PTM sites removed, hIgG4 CH (S228P) and human kappa CL; leader residues 1-19 of each entry left out; also called U0959FD090-VH1-PTM + U0959FD090-VL2
- Kd (human CD47 protein [1]): 0.556 nM
- koff (human CD47 protein [1]): 0.00193 s⁻¹
- kon (human CD47 protein [1]): 3.46e+06 M⁻¹ s⁻¹

B11: chimeric-VH-PTM1+VL-1 (antibody, human IgG4 S228P, V domains shown)
VH: EVQLQQSGPELVKPGASVKLSCKASGYTFTSSVIHWVKQKPGQGLEWLGYINPYSEGTKFNEKSKIKATLTSDKSSSTAYMELSSLTSEDSAVYYCARGLIGTRYDSWFAYWGQGTLVTVSA
VL: DIQMTQNGSSLSASLGDRVTISCRTSQDINNYLNWYQQKQDGTVKLLIYYTSRLHSGVPSRFSGSGSGTDYSLTIRNLEQEDIATYFCQQGNTLPYTFGGGTKLEIK
notes: Heavy chain with hIgG4 CH (S228P); Light chain: mouse VL-1 with a human constant region; Tested from supernatant; also called U0959FD090-chimeric-VH-PTM1 with 32G8H6 VL-1
- Kd (human CD47 protein [2]): 0.292 nM
- koff (human CD47 protein [2]): 0.00215 s⁻¹
- kon (human CD47 protein [2]): 7.36e+06 M⁻¹ s⁻¹

Continued, values first:

- Kd (human CD47 protein [2]): 0.553 nM
- koff (human CD47 protein [2]): 0.00278 s⁻¹
- kon (human CD47 protein [2]): 5.02e+06 M⁻¹ s⁻¹
B3: VH4+VL4 (antibody, human IgG4 S228P, kappa, V domains shown)
VH: B1 VH with R38K, M48L, E56D, S64C, V68A, R72S, T74K
VL: B1 VL with T22S, A43T, P44V, F71Y, Y87F
notes: Humanized IgG, hIgG4 CH (S228P) and human kappa CL; leader residues 1-19 of each entry left out; Tested from supernatant; also called U0959FD090-VH4 + U0959FD090-VL4

- Kd (human CD47 protein [2]): 0.591 nM
- koff (human CD47 protein [2]): 0.00287 s⁻¹
- kon (human CD47 protein [2]): 4.85e+06 M⁻¹ s⁻¹
B5: VH4+VL3 (antibody, human IgG4 S228P, kappa, V domains shown)
VH: B1 VH with R38K, M48L, E56D, S64C, V68A, R72S, T74K
VL: B1 VL with P44V, F71Y, Y87F
notes: Humanized IgG, hIgG4 CH (S228P) and human kappa CL; leader residues 1-19 of each entry left out; Tested from supernatant; also called U0959FD090-VH4 + U0959FD090-VL3

- Kd (human CD47 protein [2]): 0.555 nM
- koff (human CD47 protein [2]): 0.00305 s⁻¹
- kon (human CD47 protein [2]): 5.49e+06 M⁻¹ s⁻¹
B6: VH3+VL4 (antibody, human IgG4 S228P, kappa, V domains shown)
VH: B1 VH with R38K, M48L, E56D, S64C, M70L, R72S
VL: B1 VL with T22S, A43T, P44V, F71Y, Y87F
notes: Humanized IgG, hIgG4 CH (S228P) and human kappa CL; leader residues 1-19 of each entry left out; Tested from supernatant; also called U0959FD090-VH3 + U0959FD090-VL4

- binding result [3]: binds
B8: 37H4H3 (antibody, V domains shown)
VH: B11 VH with I34M, E56D, S64Y, I66T
VL: B11 VL with G8A, Q40P, T74S, N77Y, Q89H
notes: Mouse hybridoma antibody; also called antibody 37H4H3

- binding result [3]: binds
B9: 38F1E12 (antibody, V domains shown)
VH: EVQLQQSGPELVQPGASVRMSCKASGYTFTSYVMHWVKQKPGQGLEWIGYINPYNDGTKYNEKFKGKATLTSDKSSSTAYMELSSLTSEDSAVYYCARGRNRYDGWFTYWGQGTLVTVSA
VL: B11 VL with N7T, G8T, S9F, T25A, N30S, Q40P, R76S
notes: Mouse hybridoma antibody; also called antibody 38F1E12

- binding result [3]: binds
B10: 33H11F3 (antibody, V domains shown)
VH: EVQLQQSGPELVKPGASVKMSCKASGYTFTSYVMHWVKQKPGQGLEWMGYINPYNDGTKYNEKFKGKATLTSDKSSNTAYMEFSSLTSEDSAVYYCARIDYGTIHTSWFAYWGQGTLVTVSA
VL: B11 VL with Q6H, N7T, G8T, T25A, N30S, Q40P, R76S, Y96W
notes: Mouse hybridoma antibody; also called antibody 33H11F3

- Kd (human CD47 protein [2]): 0.488 nM
- koff (human CD47 protein [2]): 0.00442 s⁻¹
- kon (human CD47 protein [2]): 9.06e+06 M⁻¹ s⁻¹
B12: chimeric-VH-PTM2+VL-1 (antibody, human IgG4 S228P, V domains shown)
VH: B11 VH with E56D, G57A
VL: B11 VL
notes: Heavy chain with hIgG4 CH (S228P); Light chain: mouse VL-1 with a human constant region; Tested from supernatant; also called U0959FD090-chimeric-VH-PTM2 with 32G8H6 VL-1

- binding result [3]: binds
B13: 41B1H9 (antibody, V domains shown)
VH: EVQLQQSGTELVKPGASVRLSCTASGLDIKDTYMHWLKQRPEQGLEWIGRIDPASGNAKHDPKFQGKATITSDPSSNTANLQLTSLTSEDSAVYYCASGYGHYVGAMDYWGQGTSVTVSS
VL: DIQMNQSPSSLSASLGDTITITCHASQNINVWLSWYQQKPGNIPKLLIYKASNLHTGVPSRFSGSGSGTGFTLTISSLQPEDIATYYCQQSRNYPYTFGGGTKLEIK
notes: Mouse hybridoma antibody; also called antibody 41B1H9
